{"source": "the RNAGym collection of RNA variant scans (doi:10.1073/pnas.2313332121)", "parents": {"B1": {"name": "TPR t1 (parent)", "chain": "GACCAAUCUGCCCUCAGAGCUCGAGAACAUCUUCGGAUGCAGAGGAGGCAGGCUUCGGUGGCGCGAUAGCGCCAACGUCCUCAACCUCCAAUGCAUCCCACCACAUGAUGAUGCCUGAAGAGCCUUGGUUUUUUG"}}}
{"variants_of": "B1", "assay": "polymerase ribozyme fitness, log enrichment relative to wild type (log ratio); higher = more active; in vitro selection for triplet polymerase activity", "procedure,_shortened": "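Each subunit of a heterodimeric triplet polymerase ribozyme was represented by a PCR-built, transcribed mutant library that underwent triplicate single-round in vitro selection with frozen incubation at −7 °C. Extended constructs were recovered by gel excision, streptavidin-bead capture and RT-PCR, and Illumina sequencing of input and output libraries kept genotypes with ≥10 input reads and ≥1 read per output. Fitness is the logarithm of genotype enrichment relative to wild-type enrichment, from inverse-variance-weighted replicate averages, with a logarithm base of 2.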"}
{"variant": "GACCAAUCUGCCUUCAGAGCUCGAGAACAUCUUCGGAUGCAGAGGAGGCAGGCUUCGGUGGCACGAUAGCGCCAACGUCCUCAACCUCCAAUGCAUCCCACCACAUGAUGAUGCCUGAAGAGCCUUGGUUUUUUG", "note": "[C13U G63A]", "polymerase ribozyme fitness (log ratio)": -0.373}
{"variant": "GACCAAUCUGCCUUCAGAGCUCGAGAACAUCUUCGGAUGCAGAGGAGGCAGGCUUCCGUGGCGCGAUAGCGCCAACGCCCUCAACCUCCAAUGCAUCCCACCACAUGAUGAUGCCUGAAGAGCCUUGGUUUUUUG", "note": "[C13U G57C U78C]", "polymerase ribozyme fitness (log ratio)": 0.238}
{"variant": "GACCAAUCUGCCUUCAGAGCUCGAGAACAUCUUCGGAUGCAGAGGAGGCAGGCUUCGGUGGCGCGAUAACGCCAACGUCCUCAACCUCCAAUGCAUCCCACCACAUGAUGAUGCCUGAAGAGCCUUGGUUUUUUG", "note": "[C13U G69A]", "polymerase ribozyme fitness (log ratio)": -2.03}
{"variant": "GACCAAUCUGCCUUCAGAGCUCGAGAACAUCUUCGGAUGCAGAGGAAGCAGGCUUCGGUGGCGCGAUAGCGCCAACGUCCUGAACCUCCAAUGCAUCCCACCACAUGAUGAUGCCUGAAGAGCCUUGGUUUUUUG", "note": "[C13U G47A C82G]", "polymerase ribozyme fitness (log ratio)": -2.07}
{"variant": "GACCAAUCUGCCUUCAGAGCUCGAGAACAUCUUCGGAUGCAGAGGAUGCAGGCUUCGGUGGCGCGAUAGCGCCAACGUCCUCAACCUUCGAUGCAUCCCACCACAGGAUGAUGCCUGAAGAGCCUUGGUUUUUUG", "note": "[C13U G47U C88U A90G U106G]", "polymerase ribozyme fitness (log ratio)": -2.13}
{"variant": "GACCAAUCUGCCUUCAGAGCUCGAGAACAUCUUCGGAUGCAGAGGAGGCAAGCUUGGGUGGCGCGAUAGCGCCAACGGCCUCAACCUCUAAUGCAUCCCACCACAUGAUGAUGCCUGAAGAGCCUUGGUUUUUUG", "note": "[C13U G51A C56G U78G C89U]", "polymerase ribozyme fitness (log ratio)": -0.499}
{"variant": "GACCAAUCUGCCUUCAGAGCUCGAGAACAUCUUCGGAUGCAGAGAAGGCAGGCUUCGGUGGCGCGAUAGCGCCAACGUCCUCAUCCACCAAUGCAUCCCACCACAUGAUGAUGCCUGAAGAGCCUUGGUUUUUUG", "note": "[C13U G45A A84U U87A]", "polymerase ribozyme fitness (log ratio)": -1.98}
{"variant": "GACCAAUCUGCCUUCAGAGCUCGAGAACAUCUUCGGAUGCAGAGGAGGCAUGCUUCGGUGGCGCGAUAGCGCCAACGUCCUCAACCUCCAAUGCAUCCCACCACAUGAUGAUGCCUGAAGAGCCUUGGUUUUUUG", "note": "[C13U G51U]", "polymerase ribozyme fitness (log ratio)": -2.84}
{"variant": "GACCAAUCUGCCUUCAGAGCUCGAGAACAUCUUCGGAUGCAGAGGAGGCACGCUUCGGUGGCGCGAUAGCGCCAACGUCCUCAACCUCCAAUGCAUCCCACCACAUGAUGAUGCCUGAAGAGCCUUGGUUUUUUG", "note": "[C13U G51C]", "polymerase ribozyme fitness (log ratio)": -2.27}
{"variant": "GACCAAUCUGCCUUCAGAGCUCGAGAACAUCUUCGGAUGCAGAGGAGGCAGGCUUCGGUAGCGCGAUAACGCCAACGUCCUCAACCUCCAAUGCAUCCCACCACAUGAUGAGGCCUGAAGAGCCUUGGUUUUUUG", "note": "[C13U G60A G69A U112G]", "polymerase ribozyme fitness (log ratio)": -5.04}
{"variant": "GACCAAUCUGCCUUCAGAGCUCGAGAACAUCUUCGGAUGCAGAGGAGGCAGGCUUCAGUGGCGCGAUAGCGCCAACGUCCUCAACCUCCAAUGCAUCCCACCACAUGAUUAUGCCUGAAGAGCCUUGGUUUUUUG", "note": "[C13U G57A G110U]", "polymerase ribozyme fitness (log ratio)": -1.9}
{"variant": "GACCAAUCUGCCUUCAGAGCUCGAGAACAUCUUCGGAUGCAGAGGAGGCAGGCUUCGGUGUCGCGAUAGCGCCAACGUCCUCAACCUCCAAUGCAUCCCACCACAUGAUGAUGCCUGAAGAGCCUUGGAUUUUUU", "note": "[C13U G61U U129A G135U]", "polymerase ribozyme fitness (log ratio)": -0.936}
{"variant": "GACCAAUCUGCCUUCAGAGCUCGAGAACAUCUUCGGAUGCAGAGGAGUCAGGCUUCGGUGGCGCGAUAGCGCCAACGUCCUCAACCUCCAAUGCAUCCCACCACAUGAUCAUGCCUGAAGAGCCUUGGUUUUUUG", "note": "[C13U G48U G110C]", "polymerase ribozyme fitness (log ratio)": -4.34}
{"variant": "GACCAAUCUGCCUUCAGAGCUCGAGAACAUCUUCGGAUGCAGAGGAGGCAGGCUUCGGUCACGCGAUAGCGCCAACGUCCUCAACCUCCAAUGCAUCCCACCACAUGAUGAUGCCUAAAGAGCCUUGGUUUUUUG", "note": "[C13U G60C G61A G117A]", "polymerase ribozyme fitness (log ratio)": -2.25}
{"variant": "GACCAAUCUGCCUUCAGAGCUCGAGAACAUCUUCGGAUGCAGAGGAGGCAGGCUUCGGUGGCCCGAUAGCGCCAACGUCCUCAACCUCCAAAGCAUCCCACCACAUGAUGAUGCCUGAAGAGCCUUGGUUUUUUG", "note": "[C13U G63C U92A]", "polymerase ribozyme fitness (log ratio)": -3.34}
{"variant": "GACCAAUCUGCCUUCAGAGCUCGAGAACAUCUUCGGAUGCAGAGGAGGCAUGCUUCGGUUGCGCGAUAGCGCCAACGUCCUCAACCUCCAAUGCAUUCCACCACAUGAUGAUGCCUGAGGAGCCUUUGUUUUUUG", "note": "[C13U G51U G60U C97U A119G G127U]", "polymerase ribozyme fitness (log ratio)": -2.62}
{"variant": "GACCAAUCUGCCUUCAGAGCUCGAGAACAUCUUCGGAUGCAGAGGAGUCAGGCUUCGGUGGCCCGAUAGCGCCAACGUCCUCAACCUCCAAUGCAUCCCACCACAUGAUCAUGCCUGAAGAGCCUUGGUUUUUUG", "note": "[C13U G48U G63C G110C]", "polymerase ribozyme fitness (log ratio)": -4.51}
{"variant": "GACCAAUCUGCCUUCAGAGCUCGAGAACAUCUUCGGAUGCAGAGAAGGCAGGCUUCGGUGGCGCGAUAGCGCCAACGUGCUCAACCUCCAAUGCAUCCCACCACAUGAUGAUGCCUGAAGAGCCUUGGUUUUUUG", "note": "[C13U G45A C79G]", "polymerase ribozyme fitness (log ratio)": -1.83}
{"variant": "GACCAAUCUGCCUUCAGAGCUCGAGAACAUCUUCGGAUGCAGAGGAAGCAGGCUUCGGUGGCGCGAUAGCGCCAACGCCCUCAACCUCCAAUGCAUCCCACCACAUGAUGAUGCCUGAAAAGUCAUGAUUUUUUG", "note": "[C13U G47A U78C G120A C123U U125A G128A]", "polymerase ribozyme fitness (log ratio)": -0.365}
{"variant": "GACCAAUCUGCCUUCAGAGCUCGAGAACAUCUUCGGAUGCAGAGGAAGCAGGCUUCGGUGGCGCGAUAGCGCCAACGUCCUGAACCUCCAAUGCAUCCCACCACAUGAUGAUGCCUGAAGAGGCAUGGUUUUUUG", "note": "[C13U G47A C82G C123G U125A]", "polymerase ribozyme fitness (log ratio)": -1.19}
{"variant": "GACCAAUCUGCCUUCAGAGCUCGAGAACAUCUUCGGAUGCAGAGGAGGCAGGCUUCGGUGGCACGAUAGCGCCAACGUCCUCAACCUCCAAUGCAACCCACCACAUGAUGAUGCCUGAAGAGCCUUGGUUUUUUG", "note": "[C13U G63A U96A]", "polymerase ribozyme fitness (log ratio)": -1.68}
